Where a chain is given by its changes, count along the chain named. Names and notes keep the numbering of the source. Blank lines part the entries; values can stand above or below the binder they belong to.
Target: T1, GST-Ufd2 (yeast (Saccharomyces cerevisiae), UniProt P54860 1-961)
T1 construct: Ufd2, E4 ubiquitin ligase, yeast, cloned in pGEX6P-1; Cloned in pGEX6P-1; source: E. coli BL21, purified (glutathione-sepharose)
T1 sequence (looked up): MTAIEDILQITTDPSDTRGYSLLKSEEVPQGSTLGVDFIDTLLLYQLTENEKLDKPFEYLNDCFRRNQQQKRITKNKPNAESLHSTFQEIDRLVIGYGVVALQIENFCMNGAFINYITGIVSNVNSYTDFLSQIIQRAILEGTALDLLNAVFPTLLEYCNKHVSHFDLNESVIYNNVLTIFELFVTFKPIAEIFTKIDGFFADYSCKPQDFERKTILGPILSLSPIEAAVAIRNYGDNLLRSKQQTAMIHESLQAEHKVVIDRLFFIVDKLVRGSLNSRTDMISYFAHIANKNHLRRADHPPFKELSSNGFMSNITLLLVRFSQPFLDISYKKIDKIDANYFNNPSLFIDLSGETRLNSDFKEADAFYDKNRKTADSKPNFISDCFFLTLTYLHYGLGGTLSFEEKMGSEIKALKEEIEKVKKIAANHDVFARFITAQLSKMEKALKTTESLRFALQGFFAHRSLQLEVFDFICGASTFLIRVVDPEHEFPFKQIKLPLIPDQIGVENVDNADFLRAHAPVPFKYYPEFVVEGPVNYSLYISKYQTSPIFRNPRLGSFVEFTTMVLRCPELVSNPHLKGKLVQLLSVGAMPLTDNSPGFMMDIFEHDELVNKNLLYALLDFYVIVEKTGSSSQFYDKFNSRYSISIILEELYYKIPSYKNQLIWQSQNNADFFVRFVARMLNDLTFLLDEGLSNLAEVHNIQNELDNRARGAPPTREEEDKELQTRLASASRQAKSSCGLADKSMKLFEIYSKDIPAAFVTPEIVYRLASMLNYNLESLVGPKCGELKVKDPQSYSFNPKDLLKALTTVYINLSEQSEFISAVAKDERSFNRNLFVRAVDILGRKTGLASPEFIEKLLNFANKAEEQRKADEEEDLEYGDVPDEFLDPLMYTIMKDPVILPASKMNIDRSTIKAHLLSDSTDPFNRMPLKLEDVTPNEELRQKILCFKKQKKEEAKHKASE
Assay: pull-down; GST-Ufd2 (40 pmol) incubated with 20 pmol Cdc48 in 100 µL 20 mM Tris-HCl pH 7.4, 50 mM NaCl, 1 mM MgCl2, 5 mM β-mercaptoethanol, 20% glycerol, 10 min at 25 °C; then glutathione-sepharose 4B 30 min at room temperature; eluted with glutathione; immunoblot with anti-Cdc48 and anti-GST
Settings: both partners purified

binding result: binds
B1: wild-type Cdc48 (N-terminally His-tagged) (natural protein, Saccharomyces cerevisiae, UniProt P25694 1-835, looked up)
chain: MGEEHKPLLDASGVDPREEDKTATAILRRKKKDNMLLVDDAINDDNSVIAINSNTMDKLELFRGDTVLVKGKKRKDTVLIVLIDDELEDGACRINRVVRNNLRIRLGDLVTIHPCPDIKYATRISVLPIADTIEGITGNLFDVFLKPYFVEAYRPVRKGDHFVVRGGMRQVEFKVVDVEPEEYAVVAQDTIIHWEGEPINREDEENNMNEVGYDDIGGCRKQMAQIREMVELPLRHPQLFKAIGIKPPRGVLMYGPPGTGKTLMARAVANETGAFFFLINGPEVMSKMAGESESNLRKAFEEAEKNAPAIIFIDEIDSIAPKRDKTNGEVERRVVSQLLTLMDGMKARSNVVVIAATNRPNSIDPALRRFGRFDREVDIGIPDATGRLEVLRIHTKNMKLADDVDLEALAAETHGYVGADIASLCSEAAMQQIREKMDLIDLDEDEIDAEVLDSLGVTMDNFRFALGNSNPSALRETVVESVNVTWDDVGGLDEIKEELKETVEYPVLHPDQYTKFGLSPSKGVLFYGPPGTGKTLLAKAVATEVSANFISVKGPELLSMWYGESESNIRDIFDKARAAAPTVVFLDELDSIAKARGGSLGDAGGASDRVVNQLLTEMDGMNAKKNVFVIGATNRPDQIDPAILRPGRLDQLIYVPLPDENARLSILNAQLRKTPLEPGLELTAIAKATQGFSGADLLYIVQRAAKYAIKDSIEAHRQHEAEKEVKVEGEDVEMTDEGAKAEQEPEVDPVPYITKEHFAEAMKTAKRSVSDAELRRYEAYSQQMKASRGQFSNFNFNDAPLGTTATDNANSNNSAPSGAGAAFGSNAEEDDDLYS
notes: Cdc48, Saccharomyces cerevisiae, wild type, cloned in pET15b; Cloned in pET15b; also called WT; yeast Cdc48

binding result: binds
B2: Cdc48 M288Y mutant (N-terminally His-tagged) (natural protein, Saccharomyces cerevisiae, UniProt P25694 1-835, looked up)
chain: B1 chain with M288Y
notes: Cdc48, Saccharomyces cerevisiae, with M288Y in the D1 pore loop, cloned in pET15b; Cloned in pET15b
